Five compounds from patent publication US20210087250A1, “PHARMACEUTICAL COMPOSITIONS FOR THE TRANSMUCOSAL DELIVERY OF THERAPEUTIC PEPTIDES AND PROTEINS” (CYPRUMED GMBH, priority 2018, published 2021) can be followed below.

Like-named read-outs stand apart in the source and are kept apart here.

Series [1] deals with desmopressin.
The target in series [2] is T1, PTH(1-34) (Homo sapiens (Human)) (UniProt P01270).
T1 sequence (peptide): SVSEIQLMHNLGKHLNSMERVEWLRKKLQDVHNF

For series [3], the target named is T1, PTH(1-34) (Homo sapiens (Human)). This is another data set of the same source.
For series [4], the target named is desmopressin. This is another data set of the same source.
In series [5] the target is T1, PTH(1-34) (Homo sapiens (Human)). This is another data set of the same source.
Series [6] deals with human nasal cell line RPMI 2650. The experiment in a line: Permeation of semaglutide through human nasal cells. Particulars: 0.5 mg/ml semaglutide in KRB with 5% arginine HCl versus KRB only. The class given is in vitro ADME. Here is the method: All permeation studies were performed with RPMI 2650 models after 3 weeks of cultivation. Furthermore, the whole equipment was pre-warmed to 37° C. All steps were performed at 37° C. Prior to permeation, TEER values were measured using EVOM® combined with Endohm® Chamber from World Precision Instruments (WPI, Sarasota, Fla., US).
RPMI models were incubated for 60 min in KRB. Meanwhile sample solution containing excipients and active pharmaceutical ingredients were prepared. Subsequent to the incubation period, TEER values were determined again.
Before permeation, the KRB was removed from both sides of the RPMI models and 1200 μL KRB as acceptor volume were added. Then, 200 μL of the formulations (containing 0.5 mg/ml of Semaglutide each; reference formulation in KRB only, sample formulation in KRB containing 5% of arginine HCl) were applied to the apical surface of each RPMI model. With this step the permeation time was started. After two hours of exposition the acceptor was entirely removed, transferred to Eppendorf tubes and replaced by 1200 μL pre-warmed KRB. Four hours after starting the experiment the total amount of the acceptor was withdrawn again. During permeation the cell culture plates were shaken horizontally with 200 U/min at 37° C.

The subject of a further series is MDCK cells. Description: Transepithelial electrical resistance (TEER) measurement. The class given is cell-based. The settings on record: 2.5% and 5%. Here is the method: The cellZscope from nanoAnalytics (Munster, Germany) was used for continuous evaluation of TEER as a surrogate parameter of tight junction functionality. MDCK cells were grown on 1.12 cm^2, 1.0 μm transparent filter inserts (ThinCerts™, Greiner Bio-One, Frickenhausen, Germany) with a seeding density of 100,000 cells per well. The medium was changed at cultivation days 3, 4 and 5. TEER measurements were performed on day 5 when cells reached a resistance of approximately 3,500 Ω·cm^2 starting with the replacement of the growth medium by an equivalent volume of KRB, pH 7.4 (500 μL apical, 1,500 μL basolateral) and cell incubation for 60 min. After this preincubation, 250 μL of KRB was removed from the insert, and the same volume of double-concentrated sample solution (Arginine HCl in KRB) was added to the 250 μL KRB inside the insert to reach the desired concentration. Afterwards, impedance measurements were performed for 180 min with a frequency range of 1 Hz to 100 kHz at 37° C. and 5% CO2 inside the incubator.
Subsequently, the cells were carefully washed with fresh KRB and incubated in medium, and TEER was monitored up to 24 h in 30 min time intervals after the start of the experiment to evaluate TEER recovery. The results (shown in FIG. 7) are given as the relative TEER reduction, defined as the percentage change of the starting value corrected by the baseline value.

Another series has as its system RPMI 2650 cells. The experiment in a line: CellTiter 96 AQueous One Solution cell proliferation cytotoxicity assay (MTS). The settings on record: 2.5% and 5.0% (m/V) in KRB, up to 120 min. The series is classed as cell-based, human. Here is the method: CellTiter 96® AQueous One Solution Cell proliferation Assay from Promega (Mannheim, Germany) is a colorimetric method for determining the number of viable cells in a cytotoxicity assay. The MTS tetrazolium compound is bioreduced by viable cells in a colored formazan product. The quantity of formazan is directly proportional to the number of living cells and can be measured by absorbance at 490 nm. This assay was performed to determinate cytotoxic effects of Arginine HCl in the concentrations of 2.5% and 5.0% (m/V) on RPMI 2650 cells.
RPMI 2650 cells were seeded onto a 96-well tissue culture test plate at a density of 60,000 cells per well for 24 h. Arginine HCl was dissolved in KRB. Medium was removed from the cells and replaced by 100 μL excipient solutions per well. Cells were incubated with excipient solutions for 0 min, 15 min, 30 min, 60 min and 120 min. Furthermore, cells were incubated with KRB, 1.0% Triton-X solution (V/V) for the same incubation periods as negative and positive controls, respectively. Bacitracin (BAC) served as reference.
The CellTiter 96® AQueous One Solution Cell proliferation Assay was carried out following the manufacturer's protocol. […]
After the incubation period the samples were analyzed immediately. Absorbance was recorded at 490 nm and measured by using a microplate reader Infinite® M Plex (Tecan, Switzerland).

On to chymotrypsin (enzyme), for which the Intact desmopressin after 5 hours incubation (%) in the series with desmopressin [1] worked out at 7%.
Regarding pepsin (enzyme), in series [2], the Intact PTH(1-34) was found to be 0%.
pancreatin (pool or library): the % intact PTH(1-34) in [3] amounted to 0%. The compound also returned a Peptide recovery in the series with desmopressin [4] of 20%.
In series [5], trypsin (enzyme) registered an Intact PTH(1-34) of 0%. In the series with adalimumab, the % intact Adalimumab worked out at 82%.
Regarding `Cl.N=C(N)NCCC[C@H](N)C(=O)O` [arginine HCl, arginine hydrochloride], in series [6], the “permeation of semaglutide across human nasal cells” value is listed as “improves the permeation of semaglutide”. For the same compound, in the series on MDCK cells (180 min), the TEER result was “strong decrease in TEER”. For the same compound, in the series on MDCK cells (up to 24 h), the “reversibility of tight junction opening (TEER recovery)” value was “fully reversible”. In addition, the cell viability entry in the series with RPMI 2650 cells is given as “Only a minor decrease in cell viability”.
